One assay concerns the target T1, PTCH1 (Patched 1) (Mus musculus, UniProt Q61115).
T1 construct: full-length PTCH1-WT with C-terminal 1D4 tag
T1 sequence (Q61115 1-1434): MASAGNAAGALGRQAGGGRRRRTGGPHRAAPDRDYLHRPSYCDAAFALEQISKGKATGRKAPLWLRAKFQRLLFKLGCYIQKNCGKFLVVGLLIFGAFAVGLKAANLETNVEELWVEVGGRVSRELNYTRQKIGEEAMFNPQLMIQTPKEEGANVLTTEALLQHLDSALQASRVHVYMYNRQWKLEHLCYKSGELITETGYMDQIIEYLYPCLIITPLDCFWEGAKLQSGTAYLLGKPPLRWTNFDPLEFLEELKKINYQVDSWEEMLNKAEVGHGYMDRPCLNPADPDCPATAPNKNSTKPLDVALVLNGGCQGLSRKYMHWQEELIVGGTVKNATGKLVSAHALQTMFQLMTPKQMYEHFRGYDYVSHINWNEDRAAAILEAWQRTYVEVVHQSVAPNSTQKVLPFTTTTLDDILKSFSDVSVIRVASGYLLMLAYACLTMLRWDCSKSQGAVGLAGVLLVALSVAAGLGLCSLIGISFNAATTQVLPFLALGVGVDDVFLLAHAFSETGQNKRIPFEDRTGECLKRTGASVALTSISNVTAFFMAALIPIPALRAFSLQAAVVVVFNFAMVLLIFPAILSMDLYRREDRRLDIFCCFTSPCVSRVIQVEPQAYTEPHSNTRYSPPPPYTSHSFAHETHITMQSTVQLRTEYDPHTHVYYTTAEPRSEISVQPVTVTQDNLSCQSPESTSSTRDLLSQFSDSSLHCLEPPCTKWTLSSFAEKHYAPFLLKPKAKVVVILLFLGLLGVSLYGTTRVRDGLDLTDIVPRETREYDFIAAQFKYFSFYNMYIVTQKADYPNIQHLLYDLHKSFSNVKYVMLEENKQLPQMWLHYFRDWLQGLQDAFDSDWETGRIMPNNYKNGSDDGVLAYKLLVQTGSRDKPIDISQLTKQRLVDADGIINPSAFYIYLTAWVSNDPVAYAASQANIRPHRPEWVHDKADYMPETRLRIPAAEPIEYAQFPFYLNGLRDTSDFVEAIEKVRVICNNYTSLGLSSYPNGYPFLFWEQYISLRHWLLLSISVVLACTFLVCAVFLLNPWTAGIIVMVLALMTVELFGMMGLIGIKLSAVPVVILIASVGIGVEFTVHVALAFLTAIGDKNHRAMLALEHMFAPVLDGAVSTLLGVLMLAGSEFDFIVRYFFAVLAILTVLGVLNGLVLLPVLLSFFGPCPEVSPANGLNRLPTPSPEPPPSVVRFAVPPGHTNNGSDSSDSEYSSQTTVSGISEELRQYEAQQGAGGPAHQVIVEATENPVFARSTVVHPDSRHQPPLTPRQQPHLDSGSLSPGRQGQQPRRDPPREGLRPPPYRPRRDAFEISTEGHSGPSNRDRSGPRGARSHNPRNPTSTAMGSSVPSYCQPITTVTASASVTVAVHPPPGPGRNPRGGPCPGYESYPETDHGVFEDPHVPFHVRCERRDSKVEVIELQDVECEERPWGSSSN
Briefly: UV photocrosslinking in intact cells, immunoprecipitation and click-biotin detection. It is filed as cell-based. From the text:
UV photocrosslinking in intact cells, immunoprecipitation and click-biotin detection on PTCH1 (Patched 1) | PTCH1 itself could be photolabeled by 6-azi-20(S)-yne. Labeling of PTCH1 by 6-azi-20(S)-yne was diminished by SHH

The next assay addresses T2, hSMOΔC (Homo sapiens, UniProt Q99835).
T2 construct: Smoothened (SMO), human, UniProt Q99835, amino acid residues 32 to 555, lacks the disordered C-terminal cytoplasmic tail; Purified in detergent (GDN/CHS); Cloned into pHR-CMV-TetO2 (Addgene plasmid no. 113883) with a 3C-protease cleavable mVenus-1D4 tag; called nonfluorescent in the FSEC assay; also called human Smoothened lacking its C-terminal cytoplasmic tail; hSMO∆C; not shown: HA, …
Nature of the assay: SEC; fluorescence-detection size exclusion chromatography (FSEC); purified hSMOΔC variants and Nb8-mVenus incubated 1 hour in 200 μl, no added ligands; Superose 6 Increase 3.2/300 in 10 mM Hepes pH 7.5, 150 mM NaCl, 0.02% GDN, 0.002% CHS; mVenus fluorescence followed. The note with it: both partners purified. In general terms: In gel filtration, larger molecules generally elute earlier.

For the next assay, the target named is T3, hSMOΔC-ΔCRD (Homo sapiens, UniProt Q99835).
T3 construct: Smoothened (SMO), human, UniProt Q99835, amino acid residues 190 to 555, lacks the cysteine-rich domain and the C-terminal cytoplasmic tail; Purified in detergent (GDN/CHS); also called hSMOΔC lacking the CRD; not shown: mVenus, C-terminal, cleaved; 1D4, C-terminal, cleaved
T3 sequence (Q99835 190-555, stated change not applied): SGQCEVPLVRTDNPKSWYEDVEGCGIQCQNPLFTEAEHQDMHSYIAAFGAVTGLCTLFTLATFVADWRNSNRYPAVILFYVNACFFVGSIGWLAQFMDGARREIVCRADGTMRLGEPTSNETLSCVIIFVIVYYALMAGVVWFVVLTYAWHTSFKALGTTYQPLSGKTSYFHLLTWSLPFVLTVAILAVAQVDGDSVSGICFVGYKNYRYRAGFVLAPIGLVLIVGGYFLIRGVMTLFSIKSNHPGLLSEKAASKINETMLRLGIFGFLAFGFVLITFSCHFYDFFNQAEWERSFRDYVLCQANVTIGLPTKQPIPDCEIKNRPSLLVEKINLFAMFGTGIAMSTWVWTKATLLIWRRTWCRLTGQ
The description is as above. To be noted: both partners purified.

T2 sequence (Q99835 32-555, stated change not applied): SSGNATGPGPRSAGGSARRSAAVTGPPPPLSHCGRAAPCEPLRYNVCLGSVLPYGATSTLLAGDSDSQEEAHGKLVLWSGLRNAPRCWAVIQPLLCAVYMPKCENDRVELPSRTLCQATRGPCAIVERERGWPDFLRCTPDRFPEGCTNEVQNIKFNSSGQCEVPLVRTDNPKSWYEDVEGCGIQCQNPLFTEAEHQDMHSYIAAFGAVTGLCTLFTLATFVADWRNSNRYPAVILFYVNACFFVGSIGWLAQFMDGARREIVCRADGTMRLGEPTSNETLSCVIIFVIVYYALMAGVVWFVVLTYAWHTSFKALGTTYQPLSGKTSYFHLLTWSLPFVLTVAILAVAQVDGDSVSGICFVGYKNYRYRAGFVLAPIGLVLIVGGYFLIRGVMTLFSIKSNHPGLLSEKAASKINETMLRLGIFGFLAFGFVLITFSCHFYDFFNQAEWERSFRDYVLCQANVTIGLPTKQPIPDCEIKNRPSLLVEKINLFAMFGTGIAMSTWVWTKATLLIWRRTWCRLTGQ

On to `C#CCC[C@](C)(O)[C@H]1CC[C@H]2[C@@H]3CC4(N=N4)[C@H]4C[C@@H](O)CC[C@]4(C)[C@H]3CC[C@@]21C` [6-azi-20(S)-yne], for which the “UV photocrosslinking in intact cells, immunoprecipitation and click-biotin detec” value on PTCH1 (Patched 1) is “PTCH1 itself could be photolabeled by 6-azi-20(S)-yne. Labeling of PTCH1 by 6-azi-20(S)-yne was diminished by SHH”.

B1: Nb8-mVenus (VHH)
VHH: QVQLQESGGGLVQAGGSLRLSCAASGYIFSSYAMGWYRQAPGKEREFVATIGWGTITYYADSVKGRFTISRDNAKNTVYLQMNSLKPEDTAVYYCAAQDLLYYSFPGDHAYWGQGTQVTVSS
notes: Fused at its C terminus to a HRV3C-mVenus-12His fragment (HRV3C protease site between Nb8 and mVenus); the only Nb8 construct described is this one; also called active-conformation specific nanobody Nb8; active-state selective Nb8; not shown: mVenus, C-terminal, kept; 12His, C-terminal, kept
B1: the binding result with hSMOΔC and with hSMOΔC-ΔCRD was “binds” throughout.

Source of the values: PMC9166294, “Patched 1 regulates Smoothened by controlling sterol binding to its extracellular cysteine-rich domain” (Science Advances, 2022).
